From patent US20210260155A1, “H-NOX Proteins for Treating Cardiovascular and Pulmonary Conditions” (OMNIOX.INC., priority 2018, published 2021)

Assay: NO reactivity
Assay type: biochemical
Experimental: NO reactivity is measured using purified proteins (H-NOX, polymeric H-NOX, Homo sapiens hemoglobin (Hs Hb) etc.) prepared at 2 μM in buffer A and NO prepared at 200 μM in Buffer A (Buffer A: 50 mM Hepes, pH 7.5, 50 mM NaCl). Data are acquired on a HI-TECH Scientific SF-61 stopped-flow spectrophotometer equipped with a Neslab RTE-100 constant-temperature bath set to 20° C. (TGK Scientific LTD., Bradford On Avon, United Kingdom). The protein is rapidly mixed with NO in a 1:1 ratio with an integration time of 0.00125 sec. The wavelengths of maximum change are fit to a single exponential using the software that is part of the spectrometer, essentially measuring the rate-limiting step of oxidation by NO. The end products of the reaction are ferric-NO for the HNOX proteins and ferric-aquo for Hs Hb.

B1: wild-type T. tengcongensis H-NOX: wild-type Thermoanaerobacter tengcongensis H-NOX protein, SEQ ID NO:2 (protein, listed as Thermoanaerobacter tengcongensis)
chain: MKGTIVGTWIKTLRDLYGNDVVDESLKSVGWEPDRVITPLEDIDDDEVRRIFAKVSEKTGKNVNEIWREVGRQNIKTFSEWFPSYFAGRRLVNFLMMMDEVHLQLTKMIKGATPPRLIAKPVAKDAIEMEYVSKRKMYDYFLGLIEGSSKFFKEEISVEEVERGEKDGFSRLKVRIKFKNPVFE
NO reactivity: low
